This passage reports reverse-splicing fitness results from the RNAGym collection of RNA variant scans (doi:10.1093/molbev/msab373).

First the molecules themselves.
B1: Azoarcus group I ribozyme (parent)
chain: GUGCCUUGCGCCGGGAAACCACGCAAGGGAUGGUGUCAAAUUCGGCGAAACCUAAGCGCCCGCCCGGGCGUAUGGCAACGCCGAGCCAAGCUUCGGCGCCUGCGCCGAUGAAGGUGUAGAGACUAGACGGCACCCACCUAAGGCAAACGCUAUGGUGAAGGCAUAGUCCAGGGAGUGGCGAAAGUCACACAAACCGG

Variants of B1 are the subject of this series. The series is described as follows: reverse-splicing fitness (ratio to wild type); higher = more active; in vitro selection; Mg2+ level not given. The method in brief: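 An in vitro group I ribozyme library with randomized positions was T7-transcribed and gel-purified. In triplicate, 10 pmol RNA in EPPS pH 7.5 was reacted with 50 pmoles of a 30-nt RNA substrate for 1 h at 37 °C across several added MgCl2 levels (1–48 mM), then stopped with EDTA. Products were reverse transcribed from a substrate-complementary primer, PCR-amplified and sequenced (HiSeq 4000). Fitness is a variant's read proportion after selection over that before, normalised to wild type.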
C82G A111U A120G A145G C150G C169G U176A: the reverse-splicing fitness was found to be 0.0104.

For C82A A111G A145C C169G U176C, the reverse-splicing fitness worked out at 0.0155.

As for A111U A120U A145G C150A C169A U176C, the reverse-splicing fitness came to 0.0038.

In the case of C82G A111C A120C C150U C169G, the reverse-splicing fitness was determined as 0.00825.

On to C82G A111G A120C U176G, for which the reverse-splicing fitness came out at 0.011.

For the variant C82U A111G A120U A145C C150A C169G U176A, the reverse-splicing fitness was found to be 0.00205.

Regarding C82U A111C A120U A145G C150A C169U U176A, the reverse-splicing fitness turned out to be 0.00566.

As for A111G A120G A145C C150A U176G, the reverse-splicing fitness turned out to be 0.00495.

For C82U A111G A120C A145C C150U C169A U176G, the reverse-splicing fitness was found to be 0.00468.

As for C82G A111G A120C C150G C169G U176C, the reverse-splicing fitness is 0.0117.

Take A111U A120U C150A: the reverse-splicing fitness was determined as 0.0595.

Consider C82U A111G A120C A145C C150A C169A U176G, for which the reverse-splicing fitness came out at 0.00444.

Regarding C82G A120G A145U C150A C169U U176G, the reverse-splicing fitness worked out at 0.00418.

As to C82G A120G A145U C150A C169U U176C, the reverse-splicing fitness amounted to 0.0145.

With C82A A111C A120C C150G C169A, the reverse-splicing fitness was found to be 0.00831.

Consider C82G A120C A145U C150A C169G U176G, for which the reverse-splicing fitness was determined as 0.00461.

On to C82U A111U A145G C150U C169A, for which the reverse-splicing fitness is 0.0102.

As for A111G A120C A145C C150U C169G U176C, the reverse-splicing fitness is 0.00855.

With C82U A111G C150A C169U U176A, the reverse-splicing fitness stood at 0.0155.

Turning to C82G A111U A120U A145C C150U C169A, the reverse-splicing fitness is 0.00282.

Consider C82A A111G A120U A145U C150G C169G U176C, for which the reverse-splicing fitness was found to be 0.00281.

C82U A111C A120C A145U C169A: the reverse-splicing fitness was determined as 0.00732.

C82G A111U A120U A145C C150G U176G: the reverse-splicing fitness is 0.00236.

Turning to C82G A120G A145U C150A C169G U176A, the reverse-splicing fitness is 0.0132.

As for C82G A111C A120G A145U C150G C169G, the reverse-splicing fitness was found to be 0.00781.

For C82A A111U A120C A145U C150U U176C, the reverse-splicing fitness amounted to 0.0191.

Consider A120U A145C C150G, for which the reverse-splicing fitness was found to be 0.293.

On to A120G A145U C169U U176G, for which the reverse-splicing fitness was found to be 0.0221.

Turning to C82U A111U A120U A145G C169U, the reverse-splicing fitness stood at 0.00389.

Consider C82U A120C A145U C150G C169G U176C, for which the reverse-splicing fitness stood at 0.00491.

As for C82A A111U A120G A145C C169G U176G, the reverse-splicing fitness worked out at 0.00418.

Take C82G A111G A120U A145G U176C: the reverse-splicing fitness turned out to be 0.0283.

Regarding C82U A111C C169U U176A, the reverse-splicing fitness came out at 0.0179.

As to A120G A145G C150A C169G U176C, the reverse-splicing fitness worked out at 0.0972.

For the variant A111G C150G C169U, the reverse-splicing fitness is 0.0227.

As for C82A A120C A145G C150U, the reverse-splicing fitness is 0.107.

On to C82G A111G C150U C169G U176A, for which the reverse-splicing fitness worked out at 0.0165.

Take A111U A120G A145U C150A C169U: the reverse-splicing fitness is 0.0181.

On to C82G A111C A120C A145G C150U C169U U176C, for which the reverse-splicing fitness was 0.0131.

C82U A111U A145G C150A C169U U176C: the reverse-splicing fitness worked out at 0.0133.

In the case of A111U A120G A145C C169A U176G, the reverse-splicing fitness worked out at 0.00414.

In the case of C82A A145U C150U U176G, the reverse-splicing fitness amounted to 0.0823.

In the case of A111U A120G C150G, the reverse-splicing fitness amounted to 0.0154.

Take A120G A145U C150G U176A: the reverse-splicing fitness is 0.0351.

C82U A111G A120G A145G C150A C169U U176A: the reverse-splicing fitness was 0.0215.

As for C82U A111U A120U A145C C169A U176C, the reverse-splicing fitness is 0.00199.

On to A111G A120G A145G U176C, for which the reverse-splicing fitness stood at 0.12.

As for C82U A111U A120U C150A C169A U176A, the reverse-splicing fitness came out at 0.00372.

In the case of A111G A120U A145C C150U C169A U176G, the reverse-splicing fitness came to 0.00196.

Take C82A A111C A120U A145C C169A: the reverse-splicing fitness amounted to 0.00286.

Take A111C A120G A145G C169U U176C: the reverse-splicing fitness came out at 0.045.

Turning to A111U A120C A145G C169U U176A, the reverse-splicing fitness was found to be 0.0335.

As for C82G A111U A145C C150G U176A, the reverse-splicing fitness amounted to 0.0157.

C82G A145C C150A C169G: the reverse-splicing fitness was determined as 0.00807.

For C82U A111U A120G C150U U176A, the reverse-splicing fitness came to 0.0102.

Take A120C A145U C150G C169A U176C: the reverse-splicing fitness came to 0.00821.

On to C82A A120C A145U C150G U176C, for which the reverse-splicing fitness stood at 0.0141.

C82A A111G A120G A145G C150A: the reverse-splicing fitness was determined as 0.00972.

Turning to C82U A111U A120G A145U C169G U176C, the reverse-splicing fitness was determined as 0.0121.

Take C82G A111G A145U C150A C169U U176G: the reverse-splicing fitness came out at 0.00554.

With C82U A111C A145U C150U C169G U176A, the reverse-splicing fitness is 0.0121.

With A120C A145G C150A C169U U176C, the reverse-splicing fitness came to 0.0824.

For C82G A111U A120U A145G C150U C169U U176A, the reverse-splicing fitness is 0.00518.

In the case of A120U C169G U176G, the reverse-splicing fitness stood at 0.00332.

Take C82U A111C A120G A145G C150U C169A U176G: the reverse-splicing fitness was 0.00542.

A120U C150G U176C: the reverse-splicing fitness was determined as 0.115.

On to C82U A111U A145G C150A U176A, for which the reverse-splicing fitness turned out to be 0.0215.

In the case of C82G A120C A145G C169G U176G, the reverse-splicing fitness was determined as 0.00417.

For the variant C82G A145G C150A U176C, the reverse-splicing fitness was found to be 0.0688.

For C82G A120C A145G C169U U176A, the reverse-splicing fitness was determined as 0.017.

Regarding C82G A120G A145C C150A C169G, the reverse-splicing fitness is 0.00875.

With C82G A111U A120G A145G C150A U176C, the reverse-splicing fitness was found to be 0.0219.

A145C C150U C169A U176C: the reverse-splicing fitness was 0.0196.

Take A111U A120U A145U C150A C169U U176G: the reverse-splicing fitness was found to be 0.00245.

As for A111G A145G U176G, the reverse-splicing fitness came out at 0.333.

For the variant A111G A120U C150G C169G U176C, the reverse-splicing fitness is 0.00213.

As for C82G A111G A120U A145G C150U C169A U176G, the reverse-splicing fitness was 0.00254.

For the variant A111U A120U C169G U176G, the reverse-splicing fitness was determined as 0.00197.

As to C82A A111G A145U C169G U176C, the reverse-splicing fitness is 0.0131.

For C82G A111G A120C A145C C150A U176A, the reverse-splicing fitness amounted to 0.0112.

C82G A111G A120G A145C C150U C169G U176G: the reverse-splicing fitness is 0.00557.

As for C82U A111U A145C C150A U176A, the reverse-splicing fitness was found to be 0.0116.

As to A111G A120G A145C C150G C169G U176G, the reverse-splicing fitness worked out at 0.00389.

Consider C82G A111C A145G C150U C169U U176C, for which the reverse-splicing fitness was found to be 0.0127.
